Experiments:
HL-1 cells [1] = assay: Annexin V & 7-AAD staining (apoptosis); type: cell-based, mouse; details: HL-1 cells treated with doxorubicin 0.25 μM 48 h
Procedure: HL-1 cells were cultured in Claycomb medium together with 10% FBS, norepinephrine, L-Glutamine and pencillin/streptomycin as manufacturer's protocol. 3T3 and RAW264.7 cells were cultured in DMEM with 10% FBS and pencillin/streptomycin. Neonatal rat cardiomyocytes (NRCM) were isolated from one to three-day old rat babies by using the Neonatal Heart Dissociation Kit (Miltenyi). Human iPSC derived cardiomyocytes (hiPSC-cm) were differentiated at the lab of IMTTS. All the cells were treated with 0.25 μM Doxorubicin (Sigma-Aldrich) for 48 hours. circ-Insr siRNA (Eurofins), in vitro circular RNA and overexpression plasmid were transfected with Lipofectamine 2000 (Life Technologies) in OptiMEM medium. NRCM and hipsc-CM were transduced by AAV6 (MOI: 1*10^4) for 72 hours.
FlowCellect Annexin Red kit (Millipore) was used to stain apoptotic cells as per the manufacturer instruction. Briefly, cells were seeded in 12 well plate and next day treated with 0.25 μM Doxorubicin in normal medium with 10% FBS for forty-eight hours. Then cells were trypsinized and harvested and stained with Annexin-V for 15 minutes at 37° C. in 1× assay buffer. Annexin-V stained cells were centrifuged and washed with 1× assay buffer. Next cells were incubated with 7-AAD for 5 minutes and acquired on Guava (Millipore) flow cytometer. Data was analyzed with FLOWJO software.

HL-1 cells [2] = assay: Analysis of mitochondrial fission (MitoTracker); type: cell-based, mouse; details: doxorubicin 0.25 μM 48 h, circ-Insr by overexpression plasmid vs negative control
Procedure: Based on the results of the foregoing examples, it was reasoned that circ-Insr could interact with SSBP1. To further confirm the interaction between circ-Insr and SSBP1, siRNA mediated circ-Insr knock-down was applied in HL-1 cells. Next, RNA pulldown was performed with circ-Insr and scramble biotinylated probes. RT-qPCR confirmed that decrease of circ-Insr appeared both in input and circ-Insr pulldown group (FIG. 23A). […] Therefore, we assumed that circ-Insr is a cofactor of SSBP1 resulting in the regulation of mitochondrial function in cardiomyocytes by stabilizing mtDNA. […] Furthermore, mito-damage assay was applied to measure the changes in mitochondrial membrane potential (MMP). […]
Mitochondrial fission was analysed by staining mitochondria via MitoTracker® Deep Red FM (Cell Signalling) (Aung L H H, Li R B, Prabhakar B S, Maker A V, Li P F. Mitochondrial protein 18 (MTP18) plays a pro-apoptotic role in chemotherapy-induced gastric cancer cell apoptosis. Oncotarget. 2017; 8:56582-97). […] Mitochondria were imaged using Nikon Eclipse Ti microscope with 60× oils Objective (CFI Plan Apo Lambda 60× Oil) and images were analyzed with NIS Elements. To quantitatively analyse cells with mitochondria fission, those cells with disintegrated mitochondria were considered as fission. The total cell numbers were counted via Hochest 33342. […] More than 150 cells in 10-15 random fields were counted.

B1: circINSR: circRNA formed through backsplicing of the second exon of the insulin receptor gene transcript; overexpressed from plasmid or AAV (nucleic acid, listed as Homo sapiens)
chain: UGUGUCCCGGCAUGGAUAUCCGGAACAACCUCACUAGGUUGCAUGAGCUGGAGAAUUGCUCUGUCAUCGAAGGACACUUGCAGAUACUCUUGAUGUUCAAAACGAGGCCCGAAGAUUUCCGAGACCUCAGUUUCCCCAAACUCAUCAUGAUCACUGAUUACUUGCUGCUCUUCCGGGUCUAUGGGCUCGAGAGCCUGAAGGACCUGUUCCCCAACCUCACGGUCAUCCGGGGAUCACGACUGUUCUUUAACUACGCGCUGGUCAUCUUCGAGAUGGUUCACCUCAAGGAACUCGGCCUCUACAACCUGAUGAACAUCACCCGGGGUUCUGUCCGCAUCGAGAAGAACAAUGAGCUCUGUUACUUGGCCACUAUCGACUGGUCCCGUAUCCUGGAUUCCGUGGAGGAUAAUUACAUCGUGUUGAACAAAGAUGACAACGAGGAGUGUGGAGACAUCUGUCCGGGUACCGCGAAGGGCAAGACCAACUGCCCCGCCACCGUCAUCAACGGGCAGUUUGUCGAACGAUGUUGGACUCAUAGUCACUGCCAGAAAG
modifications: circular RNA; RNA sequence
notes: circRNA formed through backsplicing of the second exon of the insulin receptor gene transcript; overexpressed from plasmid or AAV
apoptotic cells (Annexin V) (HL-1 cells [1]): significantly lower levels of apoptosis
percentage of cells undergoing mitochondrial fission (HL-1 cells [2]): significantly reduce

Source: patent publication US20240299584A1, “NON-CODING RNA PROTECTING AGAINST HEART FAILURE” (MEDIZINISCHE HOCHSCHULE HANNOVER, priority 2019, published 2024)
